Results published in patent US20120114755A1, “METHODS AND MATERIALS FOR TISSUE REPAIR” (MAYO FOUNDATION FOR MEDICAL EDUCATION AND RESEARCH, priority 2009, published 2012).
Ends that are not written are not given here.

Assays:
FDP tendons = assay: In vitro tissue culture tendon healing model, gel patch with BMSC and/or Substance P: biomechanical testing; format: cell-based, dogs; conditions: zone III tendon groups, Substance P 10^−9, 2 weeks and 4 weeks
Method: Mixed-breed dogs being euthanized for other IACUC approved studies were used to harvest bone marrow from which bone marrow stromal cells (BMSCs) were cultured. The FDP tendons were harvested from dogs also being euthanized for other IACUC approved studies and these tendons were transected at similar levels, repaired with a single suture and incubated in tissue culture medium. Six repair groups was studied: (1) tendons ends opposed with two single loop sutures of 6/0 nylon (Ethicon, Somerville N.J.); (2) tendons repaired as in group 1 with the interposition of a collagen gel scaffold to the repair site (positive control group); (3) tendons repaired as in group 1 with the interposition of a BMSC-seeded collagen gel scaffold to the repair site; (4) tendons repaired as in group 1, with the interposition of a BMSC-seeded collagen gel scaffold to the repair site and addition of Substance P; (5) tendons repaired as in group 1, with the interposition of a BMSC-seeded collagen gel scaffold to the repair site and addition of GDF-5; and (6) tendons repaired as in group 1, with the interposition of a BMSC-seeded collagen gel scaffold to the repair site and addition of SP and GDF-5. […]
Confluent plates of BMSC were washed twice with sterile PBS and then trypsinized. The cells were counted with a hemocytometer and centrifuged to remove the media, forming a cell pellet with a known number of cells. […]

BMSCs [1] = assay: MTT cell proliferation assay of BMSCs with rhGDF-5; format: cell-based, dogs; conditions: day 10 of cell culture, 100 ng/mL rhGDF-5
Method: (§1) Immediately after euthanasia, 8.0 mL of bone marrow was aspirated from each tibia using a 15 mL syringe containing 2.0 mL of heparin solution. Heparin was removed and the bone marrow cells from one dog were divided into three 100-mm dishes in 10 mL of standard medium, which consists of minimal essential medium (MEM) with Earle's salts (Gibco, Grand Island, N.Y.), 10% fetal calf serum and 1% antibiotics (Antibiotic-Antimycotic, Gibco). The bone marrow cells were incubated at 37° C. with 5% CO2 and 95% air at 100% humidity. After 3 days, the medium containing floating cells was removed and new medium was added to the remaining adherent cells. These adherent cells were considered to be BMSCs. The medium was changed every 3 days. After the BMSCs formed colonies, they were treated with EDTA-trypsin to produce a cell suspension and centrifuged at 1500 rpm for 5 minutes to remove the EDTA-trypsin solution. The concentrated cell suspension was gathered in one tube and seeded in new dishes. Recombinant human GDF-5 (MBL, Woburn, Mass.) was added to the culture medium at a concentration of 100 ng/mL and culture continued for and additional 10 days.
Quantification of cell proliferation and viability was measured using Cell Proliferation Kit I (Roche, Basel, Switzerland). […] The absorbance was measured using Spectra Max Plus (Molecular Devises, Sunnyvale, Calif.). […]

BMSCs [2] = assay: Quantitative RT-PCR of BMSCs cultured with GDF-5; format: cell-based, canine
Method: as §1
Total RNA was extracted from culture cells using RNeasy Micro kit (Qiagen, Valencia, Calif.), according to the manufacturer's recommendations. The RNA concentration was determined using a NanoDrop (Thermo scientific, Waltham, Mass.). RNA was reverse transcribed into single-stranded cDNA with an anchored-oligo(dT) primer using Transcriptor First Strand cDNA Synthesis Kit (Roche). The reverse transcriptase was inactivated by heating to 85° C. for 5 minutes. The expression of tenomodulin (a marker of tenocyte differentiation), collagen type I and collagen type III was quantified with LightCycler 480 SYBR Green I Master kit (Roche) in a LightCycler 480 instrument (Roche). HPRT served as the reference gene. Five samples were measured in each group.

Row | Molecule | maximum force compared with cell only control (FDP tendons) | proliferation of BMSCs (MTT) compared with BMSCs without GDF5 stimulation (BMSCs [1]) | collagen type I mRNA expression, treated vs untreated cells (BMSCs [2]; 100 ng/mL) | collagen type III mRNA expression, treated vs untreated cells (BMSCs [2]; 100 ng/mL) | expression of tenomodulin mRNA compared with untreated cells (BMSCs [2]; day 10, 100 ng/mL)
1 | Substance P: neuropeptide, substance P (Sigma) (RPKPQQFFGLM-NH2; ends and bridges not checked; UniProt P20366 58-68, looked up) | significantly higher |  |  |  | 
2 | GDF-5: Recombinant human GDF-5 (MBL, Woburn, Mass.) (protein, UniProt P43026 382-501, looked up) Growth/differentiation factor …: APLATRQGKRPSKNLKARCSRKALHVNFKDMGWDDWIIAPLEYEAFHCEGLCEFPLRSHLEPTNHAVIQTLMNSMDPESTPPTCCVPTRLSPISILFIDSANNVVYKQYEDMVVESCGCR |  | significantly increased | no significant difference | no significant difference | increased
